Laboratory results as given in the supplement of paper PMC11246515.
± gives the standard deviation of the averaged measurements.

Assay: total protein half-life in vivo (active degradation + dilution); higher = more stable protein
[1] = E. coli NCM3722 delta-clpP delta-lon delta-hslV, growth: N-lim chemostat, doubling time 6 h
[2] = E. coli NCM3722 delta-hslV, growth: N-lim chemostat, doubling time 6 h
[3] = E. coli NCM3722 delta-lon, growth: N-lim chemostat, doubling time 6 h
[4] = E. coli NCM3722 delta-smpB, growth: N-lim chemostat, doubling time 6 h
[5] = wild type E. coli NCM3722, growth: C-lim chemostat, doubling time 3 h
[6] = wild type E. coli NCM3722, growth: C-lim chemostat, doubling time 6 h
[7] = wild type E. coli NCM3722, growth: C-lim chemostat, doubling time 12 h
[8] = wild type E. coli NCM3722, growth: N-lim chemostat, doubling time 6 h
[9] = wild type E. coli NCM3722, growth: N-lim chemostat, doubling time 12 h
[10] = wild type E. coli NCM3722, growth: P-lim chemostat, doubling time 6 h
[11] = wild type E. coli NCM3722, growth: P-lim chemostat, doubling time 12 h
[12] = E. coli NCM3722 delta-clpP, growth: N-lim chemostat, doubling time 6 h

Sequence | total protein half-life in vivo [1] [h] | total protein half-life in vivo [2] [h] | total protein half-life in vivo [3] [h] | total protein half-life in vivo [4] [h] | total protein half-life in vivo [5] [h] | total protein half-life in vivo [6] [h] | total protein half-life in vivo [7] [h] | total protein half-life in vivo [8] [h] | total protein half-life in vivo [9] [h] | total protein half-life in vivo [10] [h] | total protein half-life in vivo [11] [h] | total protein half-life in vivo [12] [h]
MDKELPWLADNAQLELKYKKGKTPLSHRRWPGEPVSVITGSLIQTLGDELLQKAEKKKNIVWRYENFSLEWQSAITQAINLIGEHKPSIPARTMAALACIAQNDSQQLLDEIVQQEGLEYATEVVIARQFIARCYESDPLVVTLQYQDEDYGYGYRSETYNEFDLRLRKHLSLAEESCWQRCADKLIAALPGINKVRRPFIALILPEKPEIANELVGLECPRTHFHSKEWLKVVANDPTAVRKLEHYWSQDIFSDREASYMSHENHFGYAACAALLREQGLAAIPRLAMYAHKEDCGSLLVQINHPQVIRTLLLVADKNKPSLQRVAKYHKNFPHATLAALAELLALTEPPARPGYPIIEDKKLPAQQKARDEYWRTLLQTLMASQPQLAAEVMPWLSTQPQSVLKSYLSAPPKPVIDGTDNSNLPEILVSPPWRSKKKMTAPRLDLAPLELTPQVYWQPGEQERLAATEPARYFSTESLAQRMEQKSGRVVLQELGFGDDVWLFLNYILPGKLDAARNSLFVQWHYYQGRVEEILNGWNSPEAQLAEQALRSGHIEALINIWENDNYSHYRPEKSVWNLYLLAQLPREMALTFWLRINEKKHLFAGEDYFLSILGLDALPGLLLAFSHRPKETFPLILNFGATELALPVAHVWRRFAAQRDLARQWILQWPEHTASALIPLVFTKPSDNSEAALLALRLLYEQGHGELLQTVANRWQRTDVWSALEQLLKQGPMDIYPARIPKAPDFWHPQMWSRPRLITNNQTVTNDALEIIGEMLRFTQGGRFYSGLEQLKTFCQPQTLAAFAWDLFTAWQQAGAPAKDNWAFLALSLFGDESTARDLTTQILAWPQEGKSARAVSGLNILTLMNNDMALIQLHHISQRAKSRPLRDNAAEFLQVVAENRGLSQEELADRLVPTLGLDDPQALSFDFGPRQFTVRFDENLNPVIFDQQNVRQKSVPRLRADDDQLKAPEALARLKGLKKDATQVSKNLLPRLETALRTTRRWSLADFHSLFVNHPFTRLVTQRLIWGVYPANEPRCLLKAFRVAAEGEFCNAQDEPIDLPADALIGIAHPLEMTAEMRSEFAQLFADYEIMPPFRQLSRRTVLLTPDESTSNSLTRWEGKSATVGQLMGMRYKGWESGYEDAFVYNLGEYRLVLKFSPGFNHYNVDSKALMSFRSLRVYRDNKSVTFAELDVFDLSEALSAPDVIFH | 6.38 |  |  |  |  |  |  |  |  |  |  | 
MDKFDANRRKLLALGGVALGAAILPTPAFATLSTPRPRILTLNNLHTGESIKAEFFDGRGYIQEELAKLNHFFRDYRANKIKSIDPGLFDQLYRLQGLLGTRKPVQLISGYRSIDTNNELRARSRGVAKKSYHTKGQAMDFHIEGIALSNIRKAALSMRAGGVGYYPRSNFVHIDTGPARHW [P0AB06] | 3.83 ± 1.1 | 2.76 ± 2.8 | 1 ± 0.91 | 1.8 ± 0.088 | 0.68 ± 0.53 | 2.67 ± 0.29 | 6.36 ± 2 | 1.97 ± 0.11 | 1.81 ± 1.2 | 1.82 ± 0.81 | 2.46 ± 0.46 | 
MDKIEVRGARTHNLKNINLVIPRDKLIVVTGLSGSGKSSLAFDTLYAEGQRRYVESLSAYARQFLSLMEKPDVDHIEGLSPAISIEQKSTSHNPRSTVGTITEIHDYLRLLFARVGEPRCPDHDVPLAAQTVSQMVDNVLSQPEGKRLMLLAPIIKERKGEHTKTLENLASQGYIRARIDGEVCDLSDPPKLELQKKHTIEVVVDRFKVRDDLTQRLAESFETALELSGGTAVVADMDDPKAEELLFSANFACPICGYSMRELEPRLFSFNNPAGACPTCDGLGVQQYFDPDRVIQNPELSLAGGAIRGWDRRNFYYFQMLKSLADHYKFDVEAPWGSLSANVHKVVLYGSGKENIEFKYMNDRGDTSIRRHPFEGVLHNMERRYKETESSAVREELAKFISNRPCASCEGTRLRREARHVYVENTPLPAISDMSIGHAMEFFNNLKLAGQRAKIAEKILKEIGDRLKFLVNVGLNYLTLSRSAETLSGGEAQRIRLASQIGAGLVGVMYVLDEPSIGLHQRDNERLLGTLIHLRDLGNTVIVVEHDEDAIRAADHVIDIGPGAGVHGGEVVAEGPLEAIMAVPESLTGQYMSGKRKIEVPKKRVPANPEKVLKLTGARGNNLKDVTLTLPVGLFTCITGVSGSGKSTLINDTLFPIAQRQLNGATIAEPAPYRDIQGLEHFDKVIDIDQSPIGRTPRSNPATYTGVFTPVRELFAGVPESRARGYTPGRFSFNVRGGRCEACQGDGVIKVEMHFLPDIYVPCDQCKGKRYNRETLEIKYKGKTIHEVLDMTIEEAREFFDAVPALARKLQTLMDVGLTYIRLGQSATTLSGGEAQRVKLARELSKRGTGQTLYILDEPTTGLHFADIQQLLDVLHKLRDQGNTIVVIEHNLDVIKTADWIVDLGPEGGSGGGEILVSGTPETVAECEASHTARFLKPML [P0A698] | 6.85 ± 0.08 | 6.32 ± 0.14 | 6.4 ± 0.084 | 5.66 ± 0.51 | 3.21 ± 0.095 | 6.19 ± 0.7 | 12.1 ± 0.6 | 6.24 ± 0.3 | 12.7 ± 0.13 | 6.273 ± 0.06 | 13.6 ± 0.84 | 6.52 ± 0.27
MDKKQVTDLRSELLDSRFGAKSISTIAESKRFPLHEMRDDVAFQIINDELYLDGNARQNLATFCQTWDDENVHKLMDLSINKNWIDKEEYPQSAAIDLRCVNMVADLWHAPAPKNGQAVGTNTIGSSEACMLGGMAMKWRWRKRMEAAGKPTDKPNLVCGPVQICWHKFARYWDVELREIPMRPGQLFMDPKRMIEACDENTIGVVPTFGVTYTGNYEFPQPLHDALDKFQADTGIDIDMHIDAASGGFLAPFVAPDIVWDFRLPRVKSISASGHKFGLAPLGCGWVIWRDEEALPQELVFNVDYLGGQIGTFAINFSRPAGQVIAQYYEFLRLGREGYTKVQNASYQVAAYLADEIAKLGPYEFICTGRPDEGIPAVCFKLKDGEDPGYTLYDLSERLRLRGWQVPAFTLGGEATDIVVMRIMCRRGFEMDFAELLLEDYKASLKYLSDHPKLQGIAQQNSFKHT | 6.14 ± 0.21 |  | 6.24 ± 0.063 | 5.24 ± 0.19 | 3.41 | 6.25 ± 0.14 |  | 5.7107 ± 0.00073 | 10.9 ± 0.24 | 5.97 ± 0.86 | 13.1 ± 0.33 | 6.13 ± 0.6
MDKQSLHETAKRLALELPFVELCWPFGPEFDVFKIGGKIFMLSSELRGVPFINLKSDPQKSLLNQQIYPSIKPGYHMNKKHWISVYPGEEISEALLRDLINDSWNLVVDGLAKRDQKRVRPG [P0AAT2] | 5.54 ± 0.35 | 5.97 ± 0.5 | 6.9 ± 0.29 | 5.28 ± 0.71 | 3.35 ± 0.7 | 5.17 ± 0.11 | 11.2 ± 0.26 | 4.78 ± 0.46 | 10.1 ± 2.1 | 4.72 ± 1.1 | 10.6 ± 0.46 | 6.23
MDKSKRHLAWWVVGLLAVAAIVAWWLLRPAGVPEGFAVSNGRIEATEVDIASKIAGRIDTILVKEGKFVREGEVLAKMDTRVLQEQRLEAIAQIKEAQSAVAAAQALLEQRQSETRAAQSLVNQRQAELDSVAKRHTRSRSLAQRGAISAQQLDDDRAAAESARAALESAKAQVSASKAAIEAARTNIIQAQTRVEAAQATERRIAADIDDSELKAPRDGRVQYRVAEPGEVLAAGGRVLNMVDLSDVYMTFFLPTEQAGTLKLGGEARLILDAAPDLRIPATISFVASVAQFTPKTVETSDERLKLMFRVKARIPPELLQQHLEYVKTGLPGVAWVRVNEELPWPDDLVVRLPQ | 7.13 ± 1.2 | 6.68 ± 0.17 | 6.78 ± 0.59 | 5.93 ± 0.0093 | 3.27 ± 0.32 | 6.21 ± 0.2 | 13 ± 1 | 6.37 ± 0.43 | 13.5 ± 1.4 | 6.03 ± 0.35 | 12.9 ± 0.49 | 6.23 ± 0.4
MDLLYRVKTLWAALRGNHYTWPAIDITLPGNRHFHLIGSIHMGSHDMAPLPTRLLKKLKNADALIVEADVSTSDTPFANLPACEALEERISEEQLQNLQHISQEMGISPSLFSTQPLWQIAMVLQATQAQKLGLRAEYGIDYQLLQAAKQQHKPVIELEGAENQIAMLLQLPDKGLALLDDTLTHWHTNARLLQQMMSWWLNAPPQNNDITLPNTFSQSLYDVLMHQRNLAWRDKLRAMPPGRYVVAVGALHLYGEGNLPQMLR | 5.23 | 5.67 | 5.61 | 5.46 ± 0.086 | 2.97 ± 0.043 |  | 11.5 | 5.74 ± 0.45 | 12.5 | 5.75 ± 0.62 | 10.6 ± 0.083 | 5.02
